Data on eight compounds can be found in patent US20070207463A1, “Method” (priority 2003, published 2007).

What all share (format): biochemical, Pantoea dispersa SB1043
Data set [1] concerns the target Pantoea dispersa AlbD variant AlbD-M2, Glu25Arg (A74G)/Lys27Glu (A79G)/Ser40Gly (A118G) (Pantoea dispersa, UniProt O07822, K27E/Q25R/S40G). The data set can be described thus: Enzyme kinetics of AlbD-M2 with p-nitrophenyl compounds. The conditions noted are these: PBS pH 7.4, room temperature, O.D405, means of triplicate. Here is the method:
(§1) Purification of AlbD and variants. The coding sequence of albD was amplified by PCR using forward primer 5′-[…]-3′ and reverse primer 5′-[…]-3′. The PCR product was digested by BamHI and EcoRI and fused in-frame to GST (glutathione S-transferase) gene in expression vector pGEX-2T (Pharmacia). E. coli DH5α containing the GST-AlbD fusion construct was grown in LB medium at 30° C. overnight. The cells were harvested by centrifuging at 5000 rpm for 10 minutes. The cells were resuspended in PBS buffer (pH7.4) and lysed by using a French Pressure Cell Press (Aim-Aminco) at 1100 psi. The lysate was centrifuged at 18000 rpm for 60 min at 4° C. The supernatant was loaded in the pre-equilibrated Gluthione Sepharose 4B affinity column and washed with PBS buffer (pH 7.4) to remove non-specifically bound proteins. […] The enzyme purity was determined using SDS-PAGE and stored at −80° C. in PBS buffer containing 50% glycerol. The AlbD variants were purified using the same method.
(§2) Kinetics analysis of wild type AlbD and its variants. Enzyme kinetics of AlbD and variants were determined using p-nitrophenyl compounds, the commonly used esterase substrates. The reaction was conducted in 165 μl PBS buffer (pH 7.4) containing enzyme (0.3-0.6 μM), and 3 mM p-nitrophenayl compounds at room temperature for 5 minutes and O.D405 was determined. For kinetics assay, we used the Kinetics program in the Athous spectrometer (Australia) to obtain slopes with different enzyme concentrations, and then calculated Km/Vmax and Kcat/Km by Lineweaver-Burk equation.

The target of data set [2] is Pantoea dispersa AlbD (albicidin detoxifying enzyme, carboxyl esterase), wild type (Pantoea dispersa, UniProt O07822). Briefly: Enzyme kinetics of wild type AlbD with p-nitrophenyl compounds. The note with it: PBS pH 7.4, room temperature, O.D405, means of triplicate. The protocol: as §1, §2
Chain of Pantoea dispersa AlbD (albicidin detoxifying enzyme, carboxyl esterase), wild type (O07822 entry or part of it): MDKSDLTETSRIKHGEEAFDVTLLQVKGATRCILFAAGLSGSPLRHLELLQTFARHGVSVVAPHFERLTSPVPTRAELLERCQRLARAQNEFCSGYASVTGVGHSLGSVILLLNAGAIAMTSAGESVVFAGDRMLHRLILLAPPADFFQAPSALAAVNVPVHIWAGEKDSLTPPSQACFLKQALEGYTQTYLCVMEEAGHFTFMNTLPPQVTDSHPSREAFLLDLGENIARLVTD
Data set [3] addresses Pantoea dispersa AlbD variant AlbD-M1, Ser40Gly (A118G), FIG. 3 (Pantoea dispersa, UniProt O07822, S40G). The data set can be described thus: Enzyme kinetics of AlbD-M1 with p-nitrophenyl compounds. The note with it: PBS pH 7.4, room temperature, O.D405, means of triplicate. The protocol: as §1, §2
Data set [4] has as its system CCCCC(=O)Oc1ccc([N+](=O)[O-])cc1. Briefly: Enzyme kinetics of wild type AlbD with p-nitrophenyl compounds. The note with it: other: wild type AlbD, PBS pH 7.4, room temperature, O.D405, Lineweaver-Burk, means of triplicate. Here is the method: as §1, §2
Data set [5] has as its system CC(=O)Oc1ccc([N+](=O)[O-])cc1. The description is as above. The note with it: other: wild type AlbD, PBS pH 7.4, room temperature, O.D405, Lineweaver-Burk, means of triplicate. The protocol:
as §1, §2

The subject of data set [6] is CCCC(=O)Oc1ccc([N+](=O)[O-])cc1. The description is as above. The conditions noted are these: other: wild type AlbD, PBS pH 7.4, room temperature, O.D405, Lineweaver-Burk, means of triplicate. The protocol: as §1, §2
The test system of data set [7] is CCCCCC(=O)Oc1ccc([N+](=O)[O-])cc1. The description is as above. The note with it: other: wild type AlbD, PBS pH 7.4, room temperature, O.D405, Lineweaver-Burk, means of triplicate. Here is the method: as §1, §2
The test system of data set [8] is CCCCC(=O)Oc1ccc([N+](=O)[O-])cc1. Briefly: Enzyme kinetics of AlbD-M1 with p-nitrophenyl compounds. The note with it: other: AlbD-M1, PBS pH 7.4, room temperature, O.D405, Lineweaver-Burk, means of triplicate. The protocol:
as §1, §2

The subject of data set [9] is CC(=O)Oc1ccc([N+](=O)[O-])cc1. The data set is described as above. The conditions noted are these: other: AlbD-M1, PBS pH 7.4, room temperature, O.D405, Lineweaver-Burk, means of triplicate. The protocol:
as §1, §2

Data set [10] has as its system CCCC(=O)Oc1ccc([N+](=O)[O-])cc1. Described as above. The note with it: other: AlbD-M1, PBS pH 7.4, room temperature, O.D405, Lineweaver-Burk, means of triplicate. The protocol:
as §1, §2

Data set [11] has as its system CCCCCC(=O)Oc1ccc([N+](=O)[O-])cc1. Described as above. The conditions noted are these: other: AlbD-M1, PBS pH 7.4, room temperature, O.D405, Lineweaver-Burk, means of triplicate. Here is the method: as §1, §2
Data set [12] has as its system CC(=O)Oc1ccc([N+](=O)[O-])cc1. The data set can be described thus: Enzyme kinetics of AlbD-M2 with p-nitrophenyl compounds. The note with it: other: AlbD-M2, PBS pH 7.4, room temperature, O.D405, Lineweaver-Burk, means of triplicate. The protocol:
as §1, §2

The test system of data set [13] is CCCC(=O)Oc1ccc([N+](=O)[O-])cc1. The description is as above. The note with it: other: AlbD-M2, PBS pH 7.4, room temperature, O.D405, Lineweaver-Burk, means of triplicate. Here is the method: as §1, §2
The subject of data set [14] is CCCCCC(=O)Oc1ccc([N+](=O)[O-])cc1. The description is as above. The note with it: other: AlbD-M2, PBS pH 7.4, room temperature, O.D405, Lineweaver-Burk, means of triplicate. Here is the method: as §1, §2

Chain of Pantoea dispersa AlbD variant AlbD-M1, Ser40Gly (A118G), FIG. 3 (O07822 entry or part of it S40G): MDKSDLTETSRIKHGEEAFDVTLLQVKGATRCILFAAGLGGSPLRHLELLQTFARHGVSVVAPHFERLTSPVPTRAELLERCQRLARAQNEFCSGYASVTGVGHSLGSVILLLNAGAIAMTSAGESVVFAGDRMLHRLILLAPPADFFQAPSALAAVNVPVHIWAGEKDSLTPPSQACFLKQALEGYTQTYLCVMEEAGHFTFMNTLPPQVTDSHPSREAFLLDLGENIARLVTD
Chain of Pantoea dispersa AlbD variant AlbD-M2, Glu25Arg (A74G)/Lys27Glu (A79G)/Ser40Gly (A118G) (O07822 entry or part of it Q25R/K27E/S40G): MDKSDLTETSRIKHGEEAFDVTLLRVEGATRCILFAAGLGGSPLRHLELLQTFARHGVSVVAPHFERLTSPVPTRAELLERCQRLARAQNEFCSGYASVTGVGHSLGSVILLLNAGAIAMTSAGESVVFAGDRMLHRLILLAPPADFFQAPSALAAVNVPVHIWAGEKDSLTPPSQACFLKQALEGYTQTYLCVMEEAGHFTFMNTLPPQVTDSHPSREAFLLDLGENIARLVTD

Consider `CC(=O)Oc1ccc([N+](=O)[O-])cc1` [p-nitrophenol acetate, p-nitrophenyl acetate], for which the figures for the Kcat in [1], in [2] and in [3] were 1.5 × 10^−2 S^−1, 3.8 × 10^−3 S^−1 and 9.1 × 10^−2 S^−1, respectively.
For `CCC(=O)Oc1ccc([N+](=O)[O-])cc1` [p-nitrophenol propionate, p-nitrophenyl propionate], in that order: 1.0 × 10^−1 S^−1, 8.3 × 10^−2 S^−1 and 2.7 × 10^−1 S^−1.
`CCCC(=O)Oc1ccc([N+](=O)[O-])cc1` [p-nitrophenyl butyrate]: the Kcat in [1] is listed as 2.8 × 10^−2 S^−1; in [3], 2.5 × 10^−1 S^−1.
The like results for `CCCCCC(=O)Oc1ccc([N+](=O)[O-])cc1` [p-nitrophenyl caproate] were, in that order, 1.3 × 10^−1 S^−1 and 4.2 × 10^−1 S^−1.
`CCCCC(=O)Oc1ccc([N+](=O)[O-])cc1` [p-nitrophenyl velerate, p-nitrophenyl valerate]: in [3], the Kcat was 8.8 × 10^−1 S^−1.
With “Pantoea dispersa AlbD (albicidin detoxifying enzyme, carboxyl esterase), wild type (Pantoea dispersa)”, the Km (usually the concentration of substrate that gives half-maximal velocity) worked out at 1700 µM in data set [4], 68000 µM in [5], 190 µM in data set [6] and 2500 µM in data set [7]. In addition, the kcat (in general, the maximal rate divided by the concentration of active sites) in [4] is 0.28 s⁻¹; in data set [6], 0.1 s⁻¹; in [7], 0.11 s⁻¹. The results for the kcat/Km in [4], in [6] and in data set [7] were 165 M⁻¹ s⁻¹, 526 M⁻¹ s⁻¹ and 55.6 M⁻¹ s⁻¹, respectively.
For the compound “Pantoea dispersa AlbD variant AlbD-M1, Ser40Gly (A118G), FIG. 3 (Pantoea dispersa; S40G)”, the Km in [8] came to 400 µM; in [9] it was 94000 µM; in data set [10], 11 µM; in data set [11] it was 250 µM.
On to “Pantoea dispersa AlbD variant AlbD-M2, Glu25Arg (A74G)/Lys27Glu (A79G)/Ser40Gly (A118G) (Pantoea dispersa; K27E/Q25R/S40G)”, for which the Km in data set [12] amounted to 13000 µM; in [13], 23 µM; in data set [14], 66000 µM.
